Assay results taken from the supplement of paper PMC6757056.
± gives the standard deviation of the averaged measurements.

B1: library; a variant is named by its letters at N, in order (parent)
chain: GCUGUCACCGGUGUAUUACCCUAGUGGUCGACCGGUCUGAUGAGUCUNNNNNNAGACGAAACAGC

Assays:
hypoxanthine [1] = variants of: B1; assay: FACS-Seq fitted mean relative fluorescence mCherry/BFP without ligand (log10 relative fluorescence); ligand: hypoxanthine (xanthine aptamer); higher = higher reporter protein expression; conditions: HEK293T, ligand present: no
In short: (§1)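 After lentiviral transduction, HEK293T library cells bearing an mCherry ribozyme-switch reporter and an EF1α-BFP marker were enriched. They were then held for 48 h with or without ligand and sorted by mCherry/BFP into 6 bins, and each bin's genomic DNA was PCR-amplified, barcoded and MiSeq-sequenced. Fluorescence is expressed as a normalized fitted mean: the normal mean of log10(mCherry/BFP) bin counts, scaled to five spiked-in control ribozymes.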

hypoxanthine [2] = variants of: B1; assay: normalized RNA/DNA level with ligand (relative to sTRSVctl = 100) (log10 (% of sTRSVctl)); ligand: hypoxanthine (xanthine aptamer); higher = less ribozyme self-cleavage, higher mRNA level; conditions: ligand concentration (+) RNA-Seq: 5 mM, HEK293T, reporter: mCherry (pCS4076), ligand present: yes
In short: (§2)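 For each 6-well well, 4 µg of library plasmid encoding mCherry-linked ribozyme switches, or eGFP-linked ones in some ligand experiments, was transfected into HEK293T. Any ligand was added 1 h before transfection, and RNA was extracted with EDTA 72 h after it, then reverse-transcribed, amplified, barcoded and sequenced. RNA level was obtained by dividing RNA reads by DNA reads, normalizing to a spiked-in non-cleaving sequence or to the top sequences, then scaling and log-transforming. The top set was 25 sequences, scaling was ×100 with log10, and ≥100 DNA reads were required.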

hypoxanthine [3] = variants of: B1; assay: normalized RNA/DNA level without ligand (relative to sTRSVctl = 100) (log10 (% of sTRSVctl)); ligand: hypoxanthine (xanthine aptamer); higher = less ribozyme self-cleavage, higher mRNA level; conditions: HEK293T, reporter: mCherry (pCS4076), ligand present: no
In short: as §2

hypoxanthine [4] = variants of: B1; assay: FACS-Seq fitted mean relative fluorescence mCherry/BFP with ligand (log10 relative fluorescence); ligand: hypoxanthine (xanthine aptamer); ligand concentration (+) FACS-Seq: 5 mM; higher = higher reporter protein expression; conditions: HEK293T, ligand present: yes
In short: as §1

Row | Variant | FACS-Seq fitted mean (log10) (hypoxanthine [1]) | normalized RNA/DNA level with ligand (log10) (hypoxanthine [2]) | normalized RNA/DNA level without ligand (log10) (hypoxanthine [3]) | FACS-Seq fitted mean (log10) (hypoxanthine [4])
1 | CGAGAG | 0.304 ± 0.055 | 1.9 ± 0.078 | 1.71 ± 0.032 | 0.258 ± 0.014
2 | ACUAUA | 0.701 ± 0.099 | 1.89 ± 0.039 | 1.823 ± 0.017 | 0.693 ± 0.019
3 | GGAGAA | 0.538 ± 0.019 | 1.92 ± 0.022 | 1.68 ± 0.053 | 0.643 ± 0.034
4 | GGAGAC | -0.358 ± 0.15 | 1.86 ± 0.066 | 1.75 ± 0.086 | 0.13 ± 0.024
5 | GGAGAG | 0.274 ± 0.052 | 1.81 ± 0.058 | 1.3 ± 0.017 | 0.507 ± 0.023
6 | GCUCGA | 0.14 ± 0.0058 | 1.92 ± 0.02 | 1.67 ± 0.088 | 0.526 ± 0.025
7 | GCUCGG | 0.247 ± 0.027 | 1.88 ± 0.074 | 1.4 ± 0.022 | 0.851 ± 0.056
8 | ACUAAC | -0.0807 ± 0.092 | 1.95 ± 0.057 | 1.8 ± 0.041 | 0.0498 ± 0.032
9 | ACUAAG | -0.0198 ± 0.018 | 1.833 ± 0.017 | 1.5247 ± 0.0014 | 0.236 ± 0.15
10 | ACUAAU | 0.475 ± 0.018 | 1.92 ± 0.046 | 1.67 ± 0.058 | 0.628 ± 0.041
11 | ACUAAA | 0.324 ± 0.083 | 1.897 ± 0.0002 | 1.76 ± 0.018 | 0.54 ± 0.027
12 | CGAAGG | 0.0138 ± 0.042 | 1.806 ± 0.015 | 1.4 ± 0.13 | 0.39 ± 0.041
13 | CGAAGA | 0.445 ± 0.018 | 1.97 ± 0.061 | 1.72 ± 0.049 | 0.65 ± 0.062
14 | UCUAGA | 0.927 ± 0.07 | 1.91 ± 0.028 | 1.69 ± 0.056 | 0.0154 ± 0.086
15 | UCUAGC | 0.834 ± 0.0096 | 1.95 ± 0.023 | 1.85 ± 0.032 | 0.666 ± 0.062
16 | GCUGUG | 0.345 ± 0.079 | 1.93 ± 0.025 | 1.76 ± 0.022 | 0.539 ± 0.081
17 | ACGUUG | -0.189 ± 0.0052 | 1.79 ± 0.033 | 1.28 ± 0.019 | 0.488 ± 0.021
18 | GCUCUG | 0.3 ± 0.0076 | 1.89 ± 0.045 | 1.32 ± 0.05 | 0.685 ± 0.024
